Article PMC8956953 (The Journal of Biological Chemistry, 2022)

Molecular target: T1, recombinant human full-length tau protein (htau40) (human, UniProt P10636-8 1-441)
T1 construct: human microtubule-associated protein tau, longest CNS splicing variant 2N4R (htau40); also called recombinant htau40; 2N4R; source: E. coli-derived recombinant protein
Assay: peptide or protein array; ProtoArray Human Protein Microarrays v5.1, ~9000 N-terminal GST-tagged human proteins spotted on nitrocellulose-coated slides; htau40 at 5 and 50 ng/μl in probe buffer (1x PBS, 0.1% Tween-20, 1x synthetic block), 90 min at 4 °C; detected with anti-tau K9JA and Alexa Fluor 647 secondary antibody
Conditions: both partners purified

binding result	Binder
binds	S100 calcium-binding protein B, spotted on the ProtoArray (natural protein, human, UniProt P04271 1-92, looked up, also called S100β; not shown: GST, N-terminal, kept) MSELEKAMVALIDVFHQYSGREGDKHKLKKSELKELINNELSHFLEEIKEQEVVDKVMETLDNDGDGECDFQEFMAFVAMVTTACHEFFEHE
binds	YES1, spotted on the ProtoArray (enzyme, human YES1 kinase; not shown: GST, N-terminal, kept) not shown
binds	RPS6KA6, spotted on the ProtoArray (enzyme, human, UniProt Q9UK32 1-745, looked up, human RPS6KA6 kinase; not shown: GST, N-terminal, kept) MLPFAPQDEPWDREMEVFSGGGASSGEVNGLKMVDEPMEEGEADSCHDEGVVKEIPITHHVKEGYEKADPAQFELLKVLGQGSFGKVFLVRKKTGPDAGQLYAMKVLKKASLKVRDRVRTKMERDILVEVNHPFIVKLHYAFQTEGKLYLILDFLRGGDVFTRLSKEVLFTEEDVKFYLAELALALDHLHQLGIVYRDLKPENILLDEIGHIKLTDFGLSKESVDQEKKAYSFCGTVEYMAPEVVNRRGHSQSADWWSYGVLMFEMLTGTLPFQGKDRNETMNMILKAKLGMPQFLSAEAQSLLRMLFKRNPANRLGSEGVEEIKRHLFFANIDWDKLYKREVQPPFKPASGKPDDTFCFDPEFTAKTPKDSPGLPASANAHQLFKGFSFVATSIAEEYKITPITSANVLPIVQINGNAAQFGEVYELKEDIGVGSYSVCKRCIHATTNMEFAVKIIDKSKRDPSEEIEILMRYGQHPNIITLKDVFDDGRYVYLVTDLMKGGELLDRILKQKCFSEREASDILYVISKTVDYLHCQGVVHRDLKPSNILYMDESASADSIRICDFGFAKQLRGENGLLLTPCYTANFVAPEVLMQQGYDAACDIWSLGVLFYTMLAGYTPFANGPNDTPEEILLRIGNGKFSLSGGNWDNISDGAKDLLSHMLHMDPHQRYTAEQILKHSWITHRDQLPNDQPKRNDVSHVVKGAMVATYSALTHKTFQPVLEPVAASSLAQRRSMKKRTSTGL
